Assay results: EP4722254A1 (Sunshine Guojian Pharmaceutical (Shanghai) Co., Ltd., dated 2026)
Values joined by “and” are separate entries in the source; they are usually repeats but may differ in a detail not shown here. Equal entries are not always repeated.

How the values were obtained:
[1] = biological target: T1, PD-1 expressed on the surface of Jurkat-PD-1-NFAT-luc cells (UniProt Q15116 25-288, limits assumed); assay: cell-based or functional assay
[2] = biological target: T2, Recombinant Human-PD-1-His protein (human, UniProt Q15116 25-167, limits assumed); assay: ELISA, Human-PD-1-His coated, anti-human Fc-HRP detection
T2 construct: not shown: His tag
T2 sequence (Q15116 25-167 limits assumed): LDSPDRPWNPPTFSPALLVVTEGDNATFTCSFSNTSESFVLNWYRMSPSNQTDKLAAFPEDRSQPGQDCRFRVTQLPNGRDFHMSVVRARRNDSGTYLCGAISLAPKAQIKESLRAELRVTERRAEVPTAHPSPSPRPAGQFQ

[3] = biological target: T1, PD-1 expressed on the surface of …; assay: flow cytometry on Jurkat-PD-1-NFAT-luc cells, anti-human Fab-FITC detection
[4] = biological target: T3, Recombinant Human-FGFR2-His protein (human, UniProt P21802-3 22-378, limits assumed); assay: ELISA, Human-FGFR2-His coated, anti-human Fc-HRP detection
T3 construct: Bought protein; not shown: His tag
T3 sequence (P21802 other isoform, or with tags, fused parts or gaps limits assumed): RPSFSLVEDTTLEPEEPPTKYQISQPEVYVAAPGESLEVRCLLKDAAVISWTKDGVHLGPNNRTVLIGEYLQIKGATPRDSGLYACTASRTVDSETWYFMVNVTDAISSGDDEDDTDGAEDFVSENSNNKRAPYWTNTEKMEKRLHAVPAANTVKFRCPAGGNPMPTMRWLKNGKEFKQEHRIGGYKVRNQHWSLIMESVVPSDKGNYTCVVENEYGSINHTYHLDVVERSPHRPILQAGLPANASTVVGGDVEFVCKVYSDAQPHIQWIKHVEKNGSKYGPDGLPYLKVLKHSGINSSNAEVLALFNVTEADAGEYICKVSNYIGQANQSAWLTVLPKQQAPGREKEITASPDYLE

FGFR2 on SNU-16 cells = FGFR2 on SNU-16 cells (human, UniProt P21802 22-821); assay: cell-based or functional assay
FGFR2 on SNU-16 cells, sequence (P21802 22-821): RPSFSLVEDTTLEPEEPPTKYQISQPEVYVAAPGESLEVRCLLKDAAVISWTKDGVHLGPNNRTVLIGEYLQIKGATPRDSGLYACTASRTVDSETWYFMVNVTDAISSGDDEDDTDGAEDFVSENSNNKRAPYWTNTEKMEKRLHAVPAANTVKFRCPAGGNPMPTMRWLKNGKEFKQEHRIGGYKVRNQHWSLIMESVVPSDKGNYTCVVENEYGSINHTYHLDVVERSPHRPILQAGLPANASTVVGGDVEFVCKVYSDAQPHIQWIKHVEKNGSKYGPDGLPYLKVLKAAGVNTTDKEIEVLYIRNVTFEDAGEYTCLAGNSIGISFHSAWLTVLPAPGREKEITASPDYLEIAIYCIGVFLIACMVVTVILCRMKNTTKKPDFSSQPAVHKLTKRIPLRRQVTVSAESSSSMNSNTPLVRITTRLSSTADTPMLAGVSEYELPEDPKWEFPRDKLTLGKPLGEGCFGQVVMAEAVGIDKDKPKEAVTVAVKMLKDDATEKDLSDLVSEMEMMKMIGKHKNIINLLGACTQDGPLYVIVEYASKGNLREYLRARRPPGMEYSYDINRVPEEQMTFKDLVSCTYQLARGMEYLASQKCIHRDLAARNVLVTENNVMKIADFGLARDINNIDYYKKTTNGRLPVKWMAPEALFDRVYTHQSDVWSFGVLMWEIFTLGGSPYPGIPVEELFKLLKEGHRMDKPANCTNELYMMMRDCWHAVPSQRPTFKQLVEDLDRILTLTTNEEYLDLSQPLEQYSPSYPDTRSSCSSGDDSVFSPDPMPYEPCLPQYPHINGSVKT

T1 sequence (Q15116 25-288 limits assumed): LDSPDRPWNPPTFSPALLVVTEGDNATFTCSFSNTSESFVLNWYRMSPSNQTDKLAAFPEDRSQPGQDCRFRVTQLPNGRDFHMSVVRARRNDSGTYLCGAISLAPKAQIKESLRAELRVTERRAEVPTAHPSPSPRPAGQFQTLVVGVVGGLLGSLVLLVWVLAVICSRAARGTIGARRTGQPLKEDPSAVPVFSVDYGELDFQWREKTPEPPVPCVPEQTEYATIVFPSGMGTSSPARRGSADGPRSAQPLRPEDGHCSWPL

B1: anti-FGFR2/PD-1 bispecific antibody a (bispecific antibody, human IgG1, kappa)
heavy: not shown
light: EIVLTQSPATLSLSPGERATLSCRASSSVNYMYWYQQKPGQAPRPWIYLTSNRATGVPARFSGSGSGTDYTLTISSLEPEDFAVYYCQQWSSNPYTFGQGTKLEIKRTVAAPSVFIFPPSDEQLKSGTASVVCLLNNFYPREAKVQWKVDNALQSGNSQESVTEQDSKDSTYSLSSTLTLSKADYEKHKVYACEVTHQGLSSPVTKSFNRGEC
notes: Anti-FGFR2 IgG with an anti-PD-1 scFv (VL-L1-VH) on the C-terminus of each heavy chain; wild-type Fc; also called anti-FGFR2/PD-1 bispecific antibody molecule a
In the case of B1, the “IC50 for the blockade of PD-1 and PD-L1 binding (NFAT-luc reporter luminescence)” value [1] is reported as 0.481 nM, the EC50 [2] is reported as 0.122 nM and 0.16 nM and the EC50 [3] is reported as 0.482 nM. The EC50 [4] was 0.0568 nM.

B2: anti-FGFR2/PD-1 bispecific antibody d (bispecific antibody, human IgG1, kappa)
heavy: not shown
light: B1 light
notes: Anti-FGFR2 IgG with an anti-PD-1 scFv in VH-L1-VL order on the C-terminus of each heavy chain; also called anti-FGFR2/PD-1 bispecific antibody molecule d
B2 showed an EC50 [2] of 0.356 nM and an EC50 [4] of 0.0615 nM.

B3: anti-FGFR2/PD-1 bispecific antibody b (bispecific antibody, human IgG1, kappa)
heavy: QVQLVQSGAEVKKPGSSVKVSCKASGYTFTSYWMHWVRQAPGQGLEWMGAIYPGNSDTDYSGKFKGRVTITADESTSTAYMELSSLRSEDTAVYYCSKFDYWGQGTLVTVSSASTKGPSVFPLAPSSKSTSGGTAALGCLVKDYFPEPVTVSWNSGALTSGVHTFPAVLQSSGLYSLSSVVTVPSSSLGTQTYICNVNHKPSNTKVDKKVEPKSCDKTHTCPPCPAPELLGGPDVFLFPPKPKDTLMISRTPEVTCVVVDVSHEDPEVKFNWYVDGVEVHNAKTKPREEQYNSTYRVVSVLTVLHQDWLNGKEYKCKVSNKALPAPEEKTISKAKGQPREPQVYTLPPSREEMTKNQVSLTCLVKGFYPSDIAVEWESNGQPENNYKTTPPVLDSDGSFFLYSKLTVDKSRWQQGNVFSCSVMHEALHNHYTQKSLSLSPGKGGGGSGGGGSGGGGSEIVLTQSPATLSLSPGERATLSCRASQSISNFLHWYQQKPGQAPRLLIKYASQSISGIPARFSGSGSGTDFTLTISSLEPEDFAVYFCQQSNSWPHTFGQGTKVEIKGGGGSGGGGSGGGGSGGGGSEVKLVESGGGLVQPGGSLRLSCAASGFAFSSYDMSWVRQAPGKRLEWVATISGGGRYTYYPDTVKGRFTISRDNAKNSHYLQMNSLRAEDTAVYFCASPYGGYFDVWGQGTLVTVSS
light: B1 light
notes: also called anti-FGFR2/PD-1 bispecific antibody molecule b
For B3, the “EC50 of ADCC (NK cell killing of SNU-16 cells, LDH release)” value (FGFR2 on SNU-16 cells) was 4.62 nM, the “IC50 for the blockade of PD-1 and PD-L1 binding (NFAT-luc reporter luminescence)” value [1] was 2.35 nM and the EC50 [2] was 0.141 nM. It also gave an EC50 [3] of 0.634 nM and an EC50 [4] of 0.0512 nM.

B4: anti-FGFR2 monoclonal antibody (antibody, human IgG1, kappa, V domains shown)
VH: QVQLVQSGAEVKKPGSSVKVSCKASGYTFTSYWMHWVRQAPGQGLEWMGAIYPGNSDTDYSGKFKGRVTITADESTSTAYMELSSLRSEDTAVYYCSKFDYWGQGTLVTVSS
VL: EIVLTQSPATLSLSPGERATLSCRASSSVNYMYWYQQKPGQAPRPWIYLTSNRATGVPARFSGSGSGTDYTLTISSLEPEDFAVYYCQQWSSNPYTFGQGTKLEIKR
notes: also called positive control anti-FGFR2 monoclonal antibody; anti-FGFR2 mAb
In the case of B4, the “EC50 of ADCC (NK cell killing of SNU-16 cells, LDH release)” value (FGFR2 on SNU-16 cells) is reported as 3.03 nM and the EC50 [4] is reported as 0.0392 nM and 0.0297 nM.
